Laboratory results from paper PMC3314626, “Crystal Structures of the Tetratricopeptide Repeat Domains of Kinesin Light Chains: Insight into Cargo Recognition Mechanisms” (PLoS ONE, 2012).

Target: T1, KLC2-TPR S328N mutant (human, UniProt Q9H0B6-1 217-480, S328N)
T1 construct: kinesin light chain 2 (KLC2), human, TPR domain, residues 217-480 of GenBank NP_073733, with S328N; made from the KLC2-TPR construct with a QuickChange kit; also called KLC2-S328N; not shown: His6 (from the vector pET28-LIC, modified)
T1 sequence (Q9H0B6 217-480 S328N): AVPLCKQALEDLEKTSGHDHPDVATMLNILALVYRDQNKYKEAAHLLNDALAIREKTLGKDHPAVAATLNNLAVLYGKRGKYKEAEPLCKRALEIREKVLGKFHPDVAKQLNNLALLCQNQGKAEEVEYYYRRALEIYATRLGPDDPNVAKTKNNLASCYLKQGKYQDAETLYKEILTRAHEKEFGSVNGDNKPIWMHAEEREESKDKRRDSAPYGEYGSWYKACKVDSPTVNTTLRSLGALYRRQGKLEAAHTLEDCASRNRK
Experiment: ITC; peptide (1-3 mM) in the syringe injected into 60-130 uM KLC1-TPR or KLC2-TPR (or mutant) in the cell; 25 C; 20 mM Bis-Tris pH 6.5, 500 mM NaCl, 0.5 mM TCEP; one-site binding model
Conditions: both partners purified

B1: JIP1 peptide (C-terminal residues of JNK-interacting protein 1) (peptide)
peptide: Ac-EYTCPTEDIYLE-OH
notes: also called JIP peptide; source: synthetic peptide (Tufts University Core Facility)
  Kd: 18.7 µM
  dH: -15.9 kcal/mol
  stoichiometry N: 1.18
